Consider two molecules from patent publication US20240000938A1 (published 2024).

What all share (test): activation reporter or marker
Experiment [1] has as its target T1, mH-Y (MiHA-Y) peptide on H-2Db (mouse).
T1 peptide: KCSRNRQYL

In experiment [2] the target is T2, HA-1 variant H, HA-1(H); Rho GTPase activating protein 45 (HMHA1) peptide on HLA-A*02:01 (human).
T2 peptide: VLHDDLLEA

Experiment [3] has as its target T3, HA-1(R), allelic variant; Rho GTPase activating protein 45 (HMHA1) peptide on HLA-A*02:01 (human).
T3 peptide: VLRDDLLEA

B1: H-Y TCR Jb2.3L (TCR, V domains shown)
Valpha: AQSVDQPDAHVTLSEGASLELRCSYSYSAAPYLFWYVQYPGQSLQFLLKYITGDTVVKGTKGFEAEFRKSNSSFNLKKSPAHWSDSAKYFCALEGQDQGGSAKLIFGEGTKLTVSS
Vbeta: EAAVTQSPRNKVAVTGGKVTLSCNQTNNHNNMYWYRQDTGHGLRLIHYSYGAGSTEKGDIPDGYKASRPSQENFSLILELATPSQTSVYFCASGDNSAETLYFGPGTRLLVL
Regarding B1, the binding result in experiment [1] was “recognises”.

B2: KP7 HA-1H TCR (TCR, V domains shown)
Valpha: KNEVEQSPQNLTAQEGEFITINCSYSVGISALHWLQQHPGGGIVSLFMLSSGKKKHGRLIATINIQEKHSSLHITASHPRDSAVYICAVRSVSGAGSYQLTFGKGTKLSVIP
Vbeta: DTGVSQNPRHKITKRGQNVTFRCDPISEHNRLYWYRQTLGQGPEFLTYFQNEAQLEKSRLLSDRFSAERPKGSFSTLEIQRTEQGDSAMYLCASSIDSFNEQFFGPGTRLTVL
With B2, the binding result is “recognises” in experiment [2] and “no recognition” in experiment [3].
